Publication PMC4349606, “Solution structure and biophysical characterization of the multifaceted signalling effector protein growth arrest specific-1” (BMC Biochemistry, 2015)

Columns and labels:
RET (Homo sapiens) = RET (Homo sapiens) (UniProt P07949); settings: cited from earlier work
[1] = biological target: T1, ectodomain of RET protein (ecRET; R&D Systems, catalog no. 1168-CR-050/CF) (UniProt P07949 29-635); assay: SPR; Biacore; ecRET amine-coupled to a CM5 chip at 4000 RU; GAS1 series 2-32 uM injected at 20 ul/min for 2 min; 10 mM Hepes pH 7.4, 150 mM NaCl, 1 mM CaCl2, 0.01% Triton X-100; Kd from equilibrium responses (Req), two independent experiments; settings: both partners purified
T1 construct: Rearranged during transformation (RET) receptor tyrosine kinase, ectodomain; also called RET receptor; extracellular part of RET; source: bought: R&D Systems (catalog no. 1168-CR-050/CF)
T1 sequence (P07949 29-635): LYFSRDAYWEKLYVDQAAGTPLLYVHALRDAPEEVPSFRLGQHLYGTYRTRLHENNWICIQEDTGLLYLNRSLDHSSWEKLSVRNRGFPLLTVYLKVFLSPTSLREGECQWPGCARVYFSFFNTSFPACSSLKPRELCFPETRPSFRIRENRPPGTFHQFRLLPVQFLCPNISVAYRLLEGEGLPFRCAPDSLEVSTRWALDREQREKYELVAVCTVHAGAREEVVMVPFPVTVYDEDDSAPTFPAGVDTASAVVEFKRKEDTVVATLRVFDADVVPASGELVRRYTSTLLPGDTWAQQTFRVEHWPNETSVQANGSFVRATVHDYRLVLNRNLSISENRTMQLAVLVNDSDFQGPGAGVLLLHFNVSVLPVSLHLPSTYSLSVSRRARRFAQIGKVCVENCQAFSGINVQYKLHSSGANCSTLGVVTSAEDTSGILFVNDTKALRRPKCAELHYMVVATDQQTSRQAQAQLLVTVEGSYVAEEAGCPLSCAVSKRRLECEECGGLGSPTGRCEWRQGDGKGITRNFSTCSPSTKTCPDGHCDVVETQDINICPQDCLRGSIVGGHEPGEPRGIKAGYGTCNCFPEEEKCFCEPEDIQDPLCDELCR

GFRα1-GDNF, sequence (P56159 25-429): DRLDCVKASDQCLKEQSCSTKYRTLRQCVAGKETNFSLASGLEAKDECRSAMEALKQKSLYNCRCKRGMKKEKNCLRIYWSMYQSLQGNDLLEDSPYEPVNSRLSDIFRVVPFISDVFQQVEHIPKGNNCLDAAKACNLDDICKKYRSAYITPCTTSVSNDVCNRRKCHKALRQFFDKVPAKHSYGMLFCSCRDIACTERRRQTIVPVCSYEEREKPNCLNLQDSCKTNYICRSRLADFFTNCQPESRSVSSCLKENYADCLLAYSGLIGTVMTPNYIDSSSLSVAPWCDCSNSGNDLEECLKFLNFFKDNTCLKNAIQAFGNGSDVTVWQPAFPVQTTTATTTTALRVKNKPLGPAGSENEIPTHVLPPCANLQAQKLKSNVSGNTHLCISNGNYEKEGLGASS
GFRα1-GDNF, sequence (P39905 76-211, further chain): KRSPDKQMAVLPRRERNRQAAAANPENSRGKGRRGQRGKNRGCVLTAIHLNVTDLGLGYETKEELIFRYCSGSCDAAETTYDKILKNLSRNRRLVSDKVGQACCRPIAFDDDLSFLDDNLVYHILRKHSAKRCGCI
RET (Homo sapiens), sequence (P07949 29-635): as the sequence (P07949 29-635) above

Kd [1] [µM] | Molecule | Kd (RET (Homo sapiens)) [µM]
– | GFRα1-GDNF (from UniProt P56159) | 0.0002
12.2 | human growth arrest specific-1 (GAS1), soluble form without the GPI-anchor, amino acids 39-317 (domain or fragment, UniProt P54826 39-317, looked up, glycosylated: approximately one N-glycan added in the insect cells (N-glycosylation site predicted at Asn117), secreted with the honey bee mellitin signal of the vector pK509.3; after thrombin cleavage Gly-Ser of the site probably remains at the N-terminus (surmise); Theoretical mass without glycan printed as 29.0 kDa; also called recombinant human GAS1; not shown: FLAG, N-terminal, cleaved; His6, N-terminal, cleaved) GLAHGRRLICWQALLQCQGEPECSYAYNQYAEACAPVLAQHGGGDAPGAAAAAFPASAASFSSRWRCPSHCISALIQLNHTRRGPALEDCDCAQDENCKSTKRAIEPCLPRTSGGGAGGPGAGGVMGCTEARRRCDRDSRCNLALSRYLTYCGKVFNGLRCTDECRTVIEDMLAMPKAALLNDCVCDGLERPICESVKENMARLCFGAELGNGPGSSGSDGGLDDYYDEDYDDEQRTGGAGGEQPLDDDDGVPHPPRPGSGAAASGGRGDLPYGPGRRS | –
